Molecular target: σ70, native, untagged (pLN12) (UniProt P00579)
Sequence (P00579 whole entry): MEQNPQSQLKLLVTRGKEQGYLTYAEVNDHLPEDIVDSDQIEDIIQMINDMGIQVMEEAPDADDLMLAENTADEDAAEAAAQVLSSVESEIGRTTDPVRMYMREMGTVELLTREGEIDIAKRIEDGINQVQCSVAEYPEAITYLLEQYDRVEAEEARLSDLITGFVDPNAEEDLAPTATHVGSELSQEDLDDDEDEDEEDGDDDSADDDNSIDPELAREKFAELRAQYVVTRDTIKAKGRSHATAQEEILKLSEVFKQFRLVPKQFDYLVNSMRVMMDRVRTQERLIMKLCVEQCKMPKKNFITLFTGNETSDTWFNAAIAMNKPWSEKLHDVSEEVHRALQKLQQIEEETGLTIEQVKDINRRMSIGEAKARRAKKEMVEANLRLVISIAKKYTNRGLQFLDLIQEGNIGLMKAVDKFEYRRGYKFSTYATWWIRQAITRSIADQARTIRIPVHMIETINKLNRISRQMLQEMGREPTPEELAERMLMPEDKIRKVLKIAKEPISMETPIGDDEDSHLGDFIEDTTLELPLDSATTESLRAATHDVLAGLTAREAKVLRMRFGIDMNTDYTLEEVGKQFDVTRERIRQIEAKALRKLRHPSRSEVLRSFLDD

β′ 1-1407 wild type with C-terminal His6 (pTA577)
Growth at 42° C. with plasmid β′ as sole source of β′ (strain RL602): +
